Experimental data published in patent US8318473B2, “Biofuel production” (Bio Architecture Lab, Inc., priority 2007, dated 2012).

Tests used:
[1] = NADPH dependent DEHU hydrogenation assay (DEHU hydrogenase); assay type: biochemical; details: E. coli cell lysate containing each ADH; NADPH consumption at 340 nm for 30 min; FIG. 7A
Description: (§1) To identify DEHU hydrogenase, a NADPH dependent DEHU hydrogenation assay was performed. 20 μl of prepared cell lysate containing each ADH was added to 160 μl of 20-fold deluted DEHU solution prepared in the above section. 20 μl of 2.5 mg/ml of NADPH solution (20 mM Tris-HCl, pH 8.0) was added to initiate the hydrogenation reaction, as a preliminary study using cell Lysate of A. tumefaciens C58 have shown that DEHU hydrogenation requires NADPH as a co-factor. The consumption of NADPH was monitored an absorbance at 340 nm for 30 min using the kinetic mode of ThermoMAX 96 well plate reader (Molecular Devises). E. coli cell lysate containing alcohol dehydrogenase (ADH) 10 lacking a portion of N-terminal domain was used in a control reaction mixture.

[2] = NADPH dependent D-mannuronate hydrogenation assay (D-mannuronate hydrogenase); assay type: biochemical; details: E. coli cell lysate containing each ADH; NADPH consumption at 340 nm for 30 min; FIG. 7B
Description: as §1, with “D-mannuronate” for “DEHU”, “D-mannuronate” for “20-fold deluted DEHU”, “reaction.” for “reaction, as a preliminary study using cell Lysate of A. tumefaciens C58 have shown that DEHU hydrogenation requires NADPH as a co-factor.”

[3] = In vitro pyruvate formation from alginate with purified enzymes; details: ~5 ug purified enzyme with Atu3025, UxuA, KdgK, KdgA; 1% alginate or ~0.5% mannuronate; over night; FIG. 6B, 6C
Description: The reaction mixture contained 1% alginate or ˜0.5% mannuronate, ˜5 ug of purified Atu3026 (ADH12) or Atu3027 (ADH11), and ˜5 ug of purified oligoalginate lyase (Atu3025), UxuA, KdgK, and KdgA, 2 mM of ATP, and 0.6 mM of NADPH in 20 mM Tris-HCl pH7.0. The reaction was carried out over night and the pyruvate formation was monitored by the pyruvate assay kit (BioVision, Inc).

[4] = TBA assay of culture media for secreted alginate lyase; details: media of overnight BL21 culture, LB+2% alginate+0.1 mM IPTG; 1:1 with 0.8% TBA, 10 min at 99 degrees Celsius; FIG. 47

B1: ADH1: alcohol dehydrogenase isolated from Agrobacterium tumefaciens C58, polypeptide SEQ ID NO: 70 (protein)
chain: MFTTSAYACDDGSSPMKLATIRRRDPGPRDVEIEIEFCGVCHSDIHTARSEWPGSLYPCVPGHEIVGRVGRVGAQVTRFKTGDRVGVGCIVDSCRECASCAEGLEQYCENGMTGTYNSPDKAMGGGAHTLGGYSAHVVVDDRYVLNIPEGLDPAAAAPLLCAGITTYSPLRHWNAGPGKRVGVVGLGGLGHMAVKLANAMGATVVMITTSPGKAEDAKKLGAHEVIISRDAEQMKKATSSLDLIIDAVAADHDIDAYLALLKRDGALVQVGAPEKPLSVMAFSLIPGRKTFAGSMIGGIPETQEMLDFCAEKGIAGEIEMIDIDQINDAYERMIKSDVRYRFVIDMKSLPRQKAA
modifications: Agrobacterium tumefaciens C58
- DEHU hydrogenase activity [1]: significant DEHU hydrogenase activity

B2: ADH2: alcohol dehydrogenase isolated from Agrobacterium tumefaciens C58, polypeptide SEQ ID NO: 72 (protein)
chain: MAIARGYAATDASKPLTPFTFERREPNDDDVVIDIKYAGICHSDIHTVRNEWHNAVYPIVPGHEIAGVVRAVGSKVTRFKVGDHVGVGCFVDSCVGCATRDVDNEQYMPGLVQTYNSVERDGKSATQGGYSDHIVVREDYVLSIPDNLPLDASAPLLCAGITLYSPLQHWNAGPGKKVAIVGMGGLGHMGVKIGSAMGADITVLSQTLSKKEDGLKLGAKEYYATSDASTFEKLAGTFDLILCTVSAEIDWNAYLNLLKVNGTMVLLGVPEHAIPVHAFSVIPARRSLAGSMIGSIKETQEMLDFCGKHDIVSEIETIGIKDVNEAYERVLKSDVRYRFVIDMASLDA
modifications: Agrobacterium tumefaciens C58
- DEHU hydrogenase activity [1]: significant DEHU hydrogenase activity

B3: ADH3: alcohol dehydrogenase isolated from Agrobacterium tumefaciens C58, polypeptide SEQ ID NO: 74 (protein)
chain: MTKTMKAAVVRAFGKPLTIEEVAIPDPGPGEILINYKATGVCHTDLHAATGDWPVKPNPPFIPGHEGAGYVAKIGAGVTGIKEGDRAGTPWLYTACGCCIPCRTGWETLCPSQKNSGYSVNGSFAEYGLADPKFVGRLPDNLDFGPAAPVLCAGVTVYKGLKETEVRPGEWVVISGIGGLGHMAVQYAKAMGMHVVAADIFDDKLALAKKLGADVVVNGRAPDAVEQVQKATGGVHGALVTAVSPKAMEQAYGFLRSKGTMALVGLPPGFISIPVFDTVLKRITVRGSIVGTRQDLEEALTFAGEGKVAAHFSWDKLENINDIFHRMEEGKIDGRIVVDLAA
modifications: Agrobacterium tumefaciens C58
- mannuronate hydrogenase activity [2]: significant mannuronate hydrogenase activity

B4: ADH4: alcohol dehydrogenase isolated from Agrobacterium tumefaciens C58, polypeptide SEQ ID NO: 76 (protein)
chain: MTGANQPWEVQEVPVPKAEPGLVLVKIHASGMCYTDVWATQGAGGDIYPQTPGHEVVGEIIEVGAGVHTRKVGDRVGTTWVQSSCGRCSYCRQNRPLTGQTAMNCDSPRTTGFATQGGHAEYIAISAEGTVLLPDGLDYTDAAPMMCAGYTTWSGLRDAEPKPGDRIAVLGIGGLGHVAVQFSKALGFETIAITHSPDKHKLATDLGADIVVADGKELLEAGGADVLLVTTNDFDTAEKAMAGVRPDGRIVLCALDFSKPFSIPSDGKPFHMMRQRVVGSTHGGQHYLAEILDLAAKGKVKPIVETFALEQATEAYERLSTGKMRFRGVFLPHGA
modifications: Agrobacterium tumefaciens C58
- mannuronate hydrogenase activity [2]: significant mannuronate hydrogenase activity

B5: ADH9: alcohol dehydrogenase isolated from Agrobacterium tumefaciens C58, polypeptide SEQ ID NO: 86 (protein)
chain: MKAIVAHGAKDVRIEDRPEEKPGPGEVRLRLARGGICGSDLHYYNHGGFGAVRLREPMVLGHEVSAVIEELGEGVEGLKIGGLVAVSPSRPCRTCRFCQEGLHNQCLNMRFYGSAMPFPHIQGAFREILVADALQCVPADGLSAGEAAMAEPLAVTLHATRRAGDLLGKRVLVTGCGPIGILSILAARRAGAAEIVATDLSDFTLGKAREAGADRVINSKDEPDALAAYGANKGTFDILYECSGAAVALAGGITALRPRGIIVQLGLGGDMSLPMMAITAKELDLRGSFRFHEEFATGVELMRKGLIDVKPFITQTVDLADAISAFEFASDRSRAMKVQIAFS
modifications: Agrobacterium tumefaciens C58
- mannuronate hydrogenase activity [2]: significant mannuronate hydrogenase activity

B6: Atu3026: alcohol dehydrogenase isolated from Agrobacterium tumefaciens C58, polypeptide SEQ ID NO: 92 (protein)
chain: MQRFTNRTIVVAGAGRDIGRACAIRFAQEGANVVLTYNGAAEGAATAVAEIEKLGRSALAIKADLTNAAEVEAAISAAADKFGEIHGLVHVAGGLIARKTIAEMDEAFWHQVLDVNLTSLFLTAKTALPKMAKGGAIVTFSSQAGRDGGGPGALAYATSKGAVMTFTRGLAKEVGPKIRVNAVCPGMISTTFHDTFTKPEVRERVAGATSLKREGSSEDVAGLVAFLASDDAAYVTGACYDINGGVLFS
modifications: Agrobacterium tumefaciens C58
- DEHU hydrogenase and mannuronate hydrogenase reactions in pyruvate formation from alginate [3]: capable of catalyzing both DEHU hydrogenase and mannuronate hydrogenase reactions

B7: Atu3027: alcohol dehydrogenase isolated from Agrobacterium tumefaciens C58, polypeptide SEQ ID NO: 90 (protein)
chain: MRSELPEGFFGPREWARLNAVADIIPGFPHTDFDTANGAEALAEADILLAAWGTPSLTRERLSRAPRLKMLAYAASSVRMVAPAEFWETSDILVTTAASAMAVPVAEFTYAAIIMCGKDVFRLRDEHRTERGTGVFGSRRGRSLPYLGNHARKVGIVGASRIGRLVMEMLARGTFEIAVYDPFLSAEEAASLGAKKAELDELLAWSDVVSLHAPILPETHHMIGARELALMADHAIFINTARGWLVDHDALLTEAISGRLRILIDTPEPEPLPTDSPFYDLPNVVLTPHIAGALGNELRALSDLAITEIERFVAGLAPLHPVHKQDMERMA
modifications: Agrobacterium tumefaciens C58
- DEHU hydrogenase and mannuronate hydrogenase reactions in pyruvate formation from alginate [3]: capable of catalyzing both DEHU hydrogenase and mannuronate hydrogenase reactions

B8: Vs24254: putative Vibrio splendidus protein similar to an alginate lyase, SEQ ID NO: 32; functional external alginate lyase (protein, listed as Vibrio splendidus)
chain: MNKPIFVVVLASLTYGCGGSSSSDSSDPSDTNNSGASYGVVAPYDIAKYQNILSSSDLQVSDPNGEEGNKTSEVKDGNFDGYVSDYFYADEETENLIFKMANYKMRSEVREGENFDINEAGVRRSLHAEISLPDIEHVMASSPADHDEVTVLQIHNKGTDESGTGYIPHPLLRVVWEQERDGLTGHYWAVMKNNAIDCSSAADSSDCYATSYNRYDLGEADLDNFTKFDLSVYENTLSIKVNDEVKVDEDITYWQHLLSYFKAGIYNQFENGEATAHFQALRYTTTQVNGSNDWDINDWKLTIPASKDTWYGSGGDSAAELEPERCESSKDLLANDSDVYDSDIGLSYFNTDEGRVHFRADMGYGTSTENSSYIRSELRELYQSSVQPDCSTSDEDTSWYLDDTRTNATSHELTASLRIEDYPNINNQDPKVVLGQIHGWKINQALVKLLWEGESKPVRVILNSDFERNNQDCNHCDPFSVELGTYSASEEWRYTIRANQDGIYLATHDLDGTNTVSHLIPWGQDYTDKDGDTVSLTSDWTSTDIAFYFKAGIYPQFKPDSDYAGEVFDVSFSSLRAEHN
- TBA assay result (cleavage of alginate polymer in growth medium) [4]: positive TBA assay result of pink color

B9: Vs24259: putative Vibrio splendidus protein similar to an alginate lyase, SEQ ID NO: 34; negative control in TBA assay (protein, listed as Vibrio splendidus)
chain: MKQITLKTLLASSILLAVGCASTSTPTADFPNNKETGEALLTPVAVSASSHDGNGPDRLVDQDLTTRWSSAGDGEWATLDYGSVQEFDAVQASFSKGNQRQSKFDIQVSVDGESWTTVLENQLSSGKAIGLERFQFEPVVQARYVRYVGHGNTKNGWNSVTGLAAVNCSINACPASHIITSDVVAAEAVIIAEMKAAEKARKDARKDLRSGNFGVAAVYPCETTVECDTRSALPVPTGLPATPVAGNSPSENFDMTHWYLSQPFDHDKNGKPDDVSEWNLANGYQHPEIFYTADDGGLVFKAYVKGVRTSKNTKYARTELREMMRRGDQSISTKGVNKNNWVFSSAPESDLESAAGIDGVLEATLKIDHATTTGNANEVGRFIIGQIHDQNDEPIRLYYRKLPNQETGAVYFAHESQDATKEDFYPLVGDMTAEVGDDGIALGEVFSYRIDVKGNTMTVTLIREGKDDVVQVVDMSNSGYDAGGKYMYFKAGVYNQNISGDLDDYSQATFYQLDVSHDQYKK
- TBA assay result (cleavage of alginate polymer in growth medium) [4]: little or no cleavage of the alginate polymer has occurred
